We go through one molecule from patent US20150337051A1 (MORPHOTEK, published 2015).

The target in assay [1] is T1, recombinant CHO TEM-1 Fc fusion protein (UniProt Q9HCU0).
T1 sequence (looked up): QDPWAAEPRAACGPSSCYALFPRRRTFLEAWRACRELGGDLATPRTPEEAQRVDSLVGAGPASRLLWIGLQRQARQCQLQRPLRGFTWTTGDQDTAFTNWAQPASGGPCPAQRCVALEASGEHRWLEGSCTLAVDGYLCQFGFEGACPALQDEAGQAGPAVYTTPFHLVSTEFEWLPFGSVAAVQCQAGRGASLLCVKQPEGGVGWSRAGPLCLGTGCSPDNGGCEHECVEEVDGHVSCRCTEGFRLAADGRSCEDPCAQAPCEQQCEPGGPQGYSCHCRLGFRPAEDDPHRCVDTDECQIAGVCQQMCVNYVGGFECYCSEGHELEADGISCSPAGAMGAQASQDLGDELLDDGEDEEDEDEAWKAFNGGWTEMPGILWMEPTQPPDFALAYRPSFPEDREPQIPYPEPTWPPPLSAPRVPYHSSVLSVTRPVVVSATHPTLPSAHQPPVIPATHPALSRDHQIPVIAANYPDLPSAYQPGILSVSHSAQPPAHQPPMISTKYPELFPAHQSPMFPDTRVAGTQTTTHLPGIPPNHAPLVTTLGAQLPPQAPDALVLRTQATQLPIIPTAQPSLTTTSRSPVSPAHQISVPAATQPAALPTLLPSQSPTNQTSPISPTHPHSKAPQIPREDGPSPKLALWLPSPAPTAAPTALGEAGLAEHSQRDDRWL
The assay can be described thus: ECL sandwich, competition: biotin-9G5 capture, sulfo-TAG-15F8 detection; MORAb-004 spike 1.5625 µg/mL, TEM-1-Fc QC 10 ng/mL; recovery at 0 µg/mL MORAb-004: 105.

In assay [2] the target is T1, recombinant CHO TEM-1 Fc fusion protein. Briefly: ECL sandwich, competition: biotin-9G5 capture, sulfo-TAG-15F8 detection; MORAb-004 spike 25 µg/mL, TEM-1-Fc QC 0.4 ng/mL; recovery at 0 µg/mL MORAb-004: 109.
Assay [3] addresses T2, TEM-1 in a native state on aortic smooth muscle cells (AoSMC) (UniProt Q9HCU0).
T2 sequence (looked up): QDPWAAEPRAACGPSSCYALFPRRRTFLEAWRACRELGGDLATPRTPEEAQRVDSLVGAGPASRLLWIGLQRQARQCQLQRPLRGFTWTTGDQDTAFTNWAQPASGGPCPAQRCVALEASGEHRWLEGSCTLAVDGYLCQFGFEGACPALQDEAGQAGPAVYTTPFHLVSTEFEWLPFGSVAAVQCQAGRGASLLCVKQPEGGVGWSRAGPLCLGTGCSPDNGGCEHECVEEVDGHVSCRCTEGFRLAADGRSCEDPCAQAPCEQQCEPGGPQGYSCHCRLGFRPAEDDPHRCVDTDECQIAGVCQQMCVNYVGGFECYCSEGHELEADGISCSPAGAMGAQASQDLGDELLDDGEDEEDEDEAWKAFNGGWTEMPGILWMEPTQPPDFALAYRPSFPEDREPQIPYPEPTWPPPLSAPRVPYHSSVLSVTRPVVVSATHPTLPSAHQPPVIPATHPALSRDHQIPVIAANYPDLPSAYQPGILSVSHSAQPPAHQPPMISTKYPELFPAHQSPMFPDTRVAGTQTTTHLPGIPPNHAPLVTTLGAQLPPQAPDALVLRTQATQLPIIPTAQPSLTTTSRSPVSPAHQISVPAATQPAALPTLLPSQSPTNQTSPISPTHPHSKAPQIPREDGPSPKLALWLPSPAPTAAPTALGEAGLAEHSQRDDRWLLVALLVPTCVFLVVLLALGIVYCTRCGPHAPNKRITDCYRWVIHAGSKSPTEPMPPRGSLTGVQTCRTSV
The assay can be described thus: flow cytometry on AoSMC, primary antibody then FITC secondary; cells only 2.5, secondary only 3.9. For orientation: Flow cytometry measures light scatter and fluorescence of single cells or particles in a stream.

Assay [4] deals with T1, recombinant CHO TEM-1 Fc fusion protein. Briefly: ECL sandwich, competition: biotin-9G5 capture, sulfo-TAG-15F8 detection; MORAb-004 spike 0.78125 µg/mL, TEM-1-Fc QC 0.08 ng/mL; recovery at 0 µg/mL MORAb-004: 114.
For assay [5] the target is unchanged. The assay can be described thus: ECL sandwich, competition: biotin-9G5 capture, sulfo-TAG-15F8 detection; MORAb-004 spike 12.5 µg/mL, TEM-1-Fc QC 0.08 ng/mL; recovery at 0 µg/mL MORAb-004: 114.
Assay [6] has the same target. Briefly: ECL sandwich, competition: biotin-9G5 capture, sulfo-TAG-15F8 detection; MORAb-004 spike 6.25 µg/mL, TEM-1-Fc QC 0.08 ng/mL; recovery at 0 µg/mL MORAb-004: 114.
For assay [7] the target is unchanged. Briefly: ECL sandwich, competition: biotin-9G5 capture, sulfo-TAG-15F8 detection; MORAb-004 spike 1.5625 µg/mL, TEM-1-Fc QC 0.4 ng/mL; recovery at 0 µg/mL MORAb-004: 109.
The target is the same in assay [8]. Briefly: ECL sandwich, competition: biotin-9G5 capture, sulfo-TAG-15F8 detection; MORAb-004 spike 6.25 µg/mL, TEM-1-Fc QC 50 ng/mL; recovery at 0 µg/mL MORAb-004: 104.
The target is the same in assay [9]. Briefly: ECL sandwich, competition: biotin-9G5 capture, sulfo-TAG-15F8 detection; MORAb-004 spike 12.5 µg/mL, TEM-1-Fc QC 2 ng/mL; recovery at 0 µg/mL MORAb-004: 106.
For assay [10] the target is unchanged. The assay can be described thus: ECL sandwich, competition: biotin-9G5 capture, sulfo-TAG-15F8 detection; MORAb-004 spike 3.125 µg/mL, TEM-1-Fc QC 50 ng/mL; recovery at 0 µg/mL MORAb-004: 104.
The target is the same in assay [11]. The assay can be described thus: ECL sandwich, competition: biotin-9G5 capture, sulfo-TAG-15F8 detection; MORAb-004 spike 12.5 µg/mL, TEM-1-Fc QC 50 ng/mL; recovery at 0 µg/mL MORAb-004: 104.

B1: MORAb-004 (antibody, INN chains, looked up, V domains shown)
VH: QVQLQESGPGLVRPSQTLSLTCTASGYTFTDYVIHWVKQPPGRGLEWIGYINPYDDDTTYNQKFKGRVTMLVDTSSNTAYLRLSSVTAEDTAVYYCARRGNSYDGYFDYSMDYWGSGTPVTVSS
VL: DIQMTQSPSSLSASVGDRVTITCRASQNVGTAVAWLQQTPGKAPKLLIYSASNRYTGVPSRFSGSGSGTDYTFTISSLQPEDIATYYCQQYTNYPMYTFGQGTKVQIK
Turning to B1, the % Recovery of TEM-1 QCs spiked with MORAb-004 in assay [1] worked out at 97.7%; in assay [2], 96.5%; in assay [4], 107%; in assay [5], 99.4%; in [6] it was 101%; in assay [7], 102%. Also, the % Recovery of TEM-1 QCs spiked with MORAb-004 turned out to be 95.7% in assay [8], 92.8% in [9], 94.5% in assay [10] and 92.1% in [11]. Moreover, the Geometric mean of resulting FACS plot in [3] is 103.
